Assay results reported in PMC5452030.
Where two headings read alike, the source gives them in different places.

Key:
Assay in all cases: SPR
[1] = target: human ApoER2 ECD-BAS H96K/H99K (LA2 mutant) (human)
[2] = target: human ApoER2 ECD-BAS H96A/H99A (LA2 mutant) (human)
[3] = target: human ApoER2 ECD-BAS E107Q (LA2 mutant) (human)
[4] = target: human ApoER2 ECD-BAS D68N (LA1 mutant) (human)
[5] = target: human ApoER2 ECD-BAS H96K/H99K (LA2 mutant) (human); remark: listed apart in the source

B1: mouse reelin R56 fragment (fifth and sixth reelin repeats), wild type, for SPR (domain or fragment)
chain: DGNNLNNPVLLLDTFDFGPREDNWFFYPGGNIGLYCPYSSKGAPEEDSAMVFVSNEVGEHSITTRDLSVNENTIIQFEINVGCSTDSSSADPVRLEFSRDFGATWHLLLPLCYHSSSLVSSLCSTEHHPSSTYYAGTTQGWRREVVHFGKLHLCGSVRFRWYQGFYPAGSQPVTWAIDNVYIGPQCEEMCYGHGSCINGTKCICDPGYSGPTCKISTKNPDFLKDDFEGQLESDRFLLMSGGKPSRKCGILSSGNNLFFNEDGLRMLVTRDLDLSHARFVQFFMRLGCGKGVPDPRSQPVLLQYSLNGGLSWSLLQEFLFSNSSNVGRYIALEMPLKARSGSTRLRWWQPSENGHFYSPWVIDQILIGGNISGNTVLEDDFSTLDSRKWLLHPGGTKMPVCGSTGDALVFIEKASTRYVVTTDIAVNEDSFLQIDFAASCSVTDSCYAIELEYSVDLGLSWHPLVRDCLPTNVECSRYHLQRILVSDTFNKWTRITLPLPSYTRSQATRFRWHQPAPFDKQQTWAIDNVYIGDGCLDMCSGHGRCVQGSCVCDEQWGGLYCDEPETSLPTQLKDNFNRAPSNQNWLTVSGGKLSTVCGAVASGLALHFSGGCSRLLVTVDLNLTNAEFIQFYFMYGCLITPSNRNQGVLLEYSVNGGITWNLLMEIFYDQYSKPGFVNILLPPDAKEIATRFRWWQPRHDGLDQNDWAIDNVLIS
**Q.** For B1, which Kd [1] is on record?
**A.** Its Kd is 45 nM.

**Q.** What about the Kd [2] of the same binder?
**A.** Its Kd is 120 nM.

**Q.** What about the Kd [3] of the same binder?
**A.** Its Kd is 38 nM.

**Q.** And the Kd [4]?
**A.** The Kd was > 2800 nM.

**Q.** And the Kd [5]?
**A.** The Kd was 490 nM.
